Test results: PMC5749897 (PLoS Pathogens, 2017)

Biological target: T1, wild-type HCV E1E2 (genotype 1a, strain H77) expression construct with C-terminal V5 epitope tag (Hepatitis C virus genotype 1a, strain …, strain)
T1 construct: also called wild-type E1E2; E1E2 complex; source: HEK-293T, transfected, in fixed and permeabilised cells; not shown: V5, C-terminal, kept
Assay: flow cytometry on cells; E1E2 library clones in HEK-293T, 22 h, fixed in 4% paraformaldehyde, permeabilised with 0.1% saponin; stained with mAb (0.33 to 2.0 ug/ml) or CD81-LEL-Fc, Alexa Fluor 488 secondary antibody; Intellicyt HTFC; signal as percent of wild-type E1E2 after subtraction of mock
Settings: one partner purified

B1: monoclonal antibody AR3C (antibody, V domains shown)
VH: VQLLEQSGAEVKKPGSSVKVSCETSGGTFDNYALNWVRQAPGQGLEWIGGVVPLFGTTRNAQKFQGRVTISDDKSTGTGHMELRSLRSEDTAVYYCVRSVTPRYCGGGFCYGEFDYWGQGTLVTVSS
VL: EIELTQSPATLSVSPGERATLSCRASQSVSSNLAWYQQKPGQAPRLLIYGASTRATGIPARFSGSGSGTEFTLTVSRLEPEDSAVYFCQQYYRSPLTFGGGTKVEIK
notes: also called mAb AR3C
binding result: binds
